B1: tocilizumab-TGN 1:25 (antibody, V domains shown)
VH: QVQLQESGPGLVRPSQTLSLTCTVSGYSITSDHAWSWVRQPPGRGLEWIGYISYSGITTYNPSLKSRVTMLRDTSKNQFSLRLSSVTAADTAVYYCARSLARTTAMDYWGQGSLVTVSS
VL: DIQMTQSPSSLSASVGDRVTITCRASQDISSYLNWYQQKPGKAPKLLIYYTSRLHSGVPSRFSGSGSGTDFTFTISSLQPEDIATYYCQQGNTLPYTFGQGTKVEIK
notes: as the heavy chain of m6; as the light chain of m6; Heterogeneous conjugate; See m6 for the DrugBank ids; also called the 1:25 variant; source: HEK293T, transfected, purified (Protein A, SEC), then conjugated with Tris-GalNAc-PEG5-sulfo-NHS ester at 1:25
B2: siltuximab (antibody, V domains shown)
VH: EVQLVESGGKLLKPGGSLKLSCAASGFTFSSFAMSWFRQSPEKRLEWVAEISSGGSYTYYPDTVTGRFTISRDNAKNTLYLEMSSLRSEDTAMYYCARGLWGYYALDYWGQGTSVTVSS
VL: QIVLIQSPAIMSASPGEKVTMTCSASSSVSYMYWYQQKPGSSPRLLIYDTSNLASGVPVRFSGSGSGTSYSLTISRMEAEDAATYYCQQWSGYPYTFGGGTKLEIK
notes: heavy chain of siltuximab, chimeric (human-murine) anti-IL-6 antibody; light chain of siltuximab; Full-length IgG; also called wildtype siltuximab; unmodified siltuximab; source: HEK293T, transfected, purified from supernatant (Protein A, SEC); copies: 2 + 2
B3: siltuximab-TGN 1:25 (antibody, V domains shown)
VH: B2 VH
VL: B2 VL
notes: as the heavy chain of m1; as the light chain of m1; Heterogeneous conjugate; See m1 for the DrugBank ids; also called the 1:25 variant; source: HEK293T, transfected, purified (Protein A, SEC), then conjugated with Tris-GalNAc-PEG5-sulfo-NHS ester at 1:25; copies: 2 + 2
B4: siltuximab-TGN 1:5 (antibody, V domains shown)
VH: B2 VH
VL: B2 VL
notes: as the heavy chain of m1; as the light chain of m1; Heterogeneous conjugate; See m1 for the DrugBank ids; also called TGN-modified siltuximab variant 1:5; source: HEK293T, transfected, purified (Protein A, SEC), then conjugated with Tris-GalNAc-PEG5-sulfo-NHS ester at 1:5; copies: 2 + 2
B5: siltuximab-TGN 1:10 (antibody, V domains shown)
VH: B2 VH
VL: B2 VL
notes: as the heavy chain of m1; as the light chain of m1; Heterogeneous conjugate; See m1 for the DrugBank ids; also called TGN-modified siltuximab variant 1:10; source: HEK293T, transfected, purified (Protein A, SEC), then conjugated with Tris-GalNAc-PEG5-sulfo-NHS ester at 1:10; copies: 2 + 2
B6: siltuximab-TGN 1:1 (antibody, V domains shown)
VH: B2 VH
VL: B2 VL
notes: as the heavy chain of m1; as the light chain of m1; Heterogeneous conjugate; See m1 for the DrugBank ids; also called TGN-modified siltuximab variant 1:1; source: HEK293T, transfected, purified (Protein A, SEC), then conjugated with Tris-GalNAc-PEG5-sulfo-NHS ester at 1:1; copies: 2 + 2

Results on 6 molecules are retold here after publication PMC13083842 (Communications Biology, 2026).

A value given as a limit tells only on which side of the number the result lay.

As a reminder, the Kd is a measure of binding affinity in units of concentration. In general, koff refers to the rate constant with which the complex falls apart. Usually kon stands for a measure of how fast the partners come together.

The first assay concerns the target T1, soluble IL-6 receptor (sIL-6R) (human (from the printed accession …, UniProt P08887)).
T1 construct: interleukin-6 receptor (IL-6R), soluble variant, residues 20-355, UniProt P08887; Two versions were made: 1; C-terminal His9-Tag; 2; C-terminal Twin-Strep-Tag, 3xGS-Linker and TEV cleavage site; Only the ELISA on sASGPR (anti-His-HRP detection) tells that the His9 version was used; Strongly and heterogeneously glycosylated; also called wild-type sIL-6R; unmodified sIL-6R; source: Expi293F, …
Kind of assay: SPR; IL-6R amine-coupled on a CM5 chip (Biacore T200); tocilizumab variants as analytes, multi-cycle kinetics, 0.39 to 100 nM; global fit, 1:1 model. The note with it: both partners purified.
Take B1: the “fold weaker affinity than wildtype tocilizumab” value was no more than 5 fold.

The next assay deals with T2, interleukin-6 (IL-6) (human, UniProt P05231).
T2 construct: interleukin-6, human; A biotinylated IL-6 was used in the cell uptake assays; for SPR and ELISA the IL-6 was amine-coupled or coated
T2 sequence (P05231 30-212): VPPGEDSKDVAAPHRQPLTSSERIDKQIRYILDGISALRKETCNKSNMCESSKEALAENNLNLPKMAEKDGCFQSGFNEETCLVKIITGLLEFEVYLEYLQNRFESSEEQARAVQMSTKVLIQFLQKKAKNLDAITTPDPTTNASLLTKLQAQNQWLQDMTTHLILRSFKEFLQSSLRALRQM
Briefly: SPR; IL-6 amine-coupled on a CM5 chip (Biacore T200); analytes in multi-cycle kinetics, 0.39 to 100 nM, 30 µL/min, 180 s association, 1200 s dissociation, HBS-N + 10 mM CaCl2; global fit, 1:1 model; where koff was below the detection limit KD was estimated from kon and the theoretical maximum koff. To be noted: both partners purified.
With B2, the Kd was less than 0.045 nM, the koff was less than 1e-05 s⁻¹ and the kon is 445000 M⁻¹ s⁻¹.

For B3, the Kd is less than 0.045 nM, the koff was less than 1e-05 s⁻¹ and the kon is 221000 M⁻¹ s⁻¹.

In the case of B4, the Kd is less than 0.045 nM and the koff was less than 1e-05 s⁻¹.

For the molecule B5, the dissociation constant Kd is less than 0.045 nM and the koff is less than 1e-05 s⁻¹.

On to B6, for which the equilibrium dissociation constant (Kd) is less than 0.045 nM and the dissociation rate constant (koff) was less than 1e-05 s⁻¹.
